Results: doi:10.1101/2023.09.10.557050 (bioRxiv, 2023)
Where two headings read alike, the source gives them in different places.

Tests used:
Assay in all cases: cryo-EM structure
[1] = target: the molecule itself
[2] = target: the molecule itself; remark: listed apart in the source
[3] = target: T1, EcNhaA WT-like triple mutant (A109T, Q277G, L296M) (E. coli), P13738; settings: remark: other sources report otherwise
T1 chain: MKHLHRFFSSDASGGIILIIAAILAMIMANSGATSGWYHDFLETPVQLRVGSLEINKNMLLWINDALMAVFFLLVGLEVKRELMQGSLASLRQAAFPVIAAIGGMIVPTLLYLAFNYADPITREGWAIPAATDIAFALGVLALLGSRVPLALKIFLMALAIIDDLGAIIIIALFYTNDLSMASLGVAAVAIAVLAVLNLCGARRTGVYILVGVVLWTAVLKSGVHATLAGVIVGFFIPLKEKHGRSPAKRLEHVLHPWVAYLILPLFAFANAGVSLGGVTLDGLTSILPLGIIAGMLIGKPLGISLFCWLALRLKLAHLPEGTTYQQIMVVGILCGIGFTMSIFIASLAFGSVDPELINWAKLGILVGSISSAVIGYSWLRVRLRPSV

B1: horse NHE9* (residues 8 to 575), tag removed (domain or fragment, UniProt F7B113 8-575, looked up)
chain: MSEKDEYQFQHQGAVELLVFNFLLILTILTIWLFKNHRFRFLHETGGAMVYGLIMGLILRYATAPTDIESGTVYDCGKLAFSPSTLLINITDQVYEYKYKREISQHNINPHLGNAILEKMTFDPEIFFNVLLPPIIFHAGYSLKKRHFFQNLGSILTYAFLGTAISCIVIGLIMYGFVKAMVYAGQLKNGDFHFTDCLFFGSLMSATDPVTVLAIFHELHVDPDLYTLLFGESVLNDAVAIVLTYSISIYSPKENPNAFDAAAFFQSVGNFLGIFAGSFAMGSAYAVVTALLTKFTKLCEFPMLETGLFFLLSWSAFLSAEAAGLTGIVAVLFCGVTQAHYTYNNLSLDSKMRTKQLFEFMNFLAENVIFCYMGLALFTFQNHIFNALFILGAFLAIFVARACNIYPLSFLLNLGRKHKIPWNFQHMMMFSGLRGAIAFALAIRDTESQPKQMMFSTTLLLVFFTVWVFGGGTTPMLTWLQIRVGVDLDEDLKERPSSHQEANNLEKSTTKTESAWLFRMWYGFDHKYLKPILTHSGPPLTTTLPEWCGPISRLLTSPQAYGEQLKED
Question: B1 was tested. Which “stoichiometry N” value [1] did it give?
Answer: 2

B2: horse NHE9*CC (L139C-I444C double mutant), tag removed (domain or fragment, UniProt F7B113 8-575, looked up)
chain: MSEKDEYQFQHQGAVELLVFNFLLILTILTIWLFKNHRFRFLHETGGAMVYGLIMGLILRYATAPTDIESGTVYDCGKLAFSPSTLLINITDQVYEYKYKREISQHNINPHLGNAILEKMTFDPEIFFNVLCPPIIFHAGYSLKKRHFFQNLGSILTYAFLGTAISCIVIGLIMYGFVKAMVYAGQLKNGDFHFTDCLFFGSLMSATDPVTVLAIFHELHVDPDLYTLLFGESVLNDAVAIVLTYSISIYSPKENPNAFDAAAFFQSVGNFLGIFAGSFAMGSAYAVVTALLTKFTKLCEFPMLETGLFFLLSWSAFLSAEAAGLTGIVAVLFCGVTQAHYTYNNLSLDSKMRTKQLFEFMNFLAENVIFCYMGLALFTFQNHIFNALFILGAFLAIFVARACNIYPLSFLLNLGRKHKIPWNFQHMMMFSGLRGACAFALAIRDTESQPKQMMFSTTLLLVFFTVWVFGGGTTPMLTWLQIRVGVDLDEDLKERPSSHQEANNLEKSTTKTESAWLFRMWYGFDHKYLKPILTHSGPPLTTTLPEWCGPISRLLTSPQAYGEQLKED
Question: Which “stoichiometry N” value [2] does the source give for B2 here?
Answer: 2

B3: EcNhaA WT-like triple mutant (A109T, Q277G, L296M), P13738 1-388 (natural protein)
chain: MKHLHRFFSSDASGGIILIIAAILAMIMANSGATSGWYHDFLETPVQLRVGSLEINKNMLLWINDALMAVFFLLVGLEVKRELMQGSLASLRQAAFPVIAAIGGMIVPTLLYLAFNYADPITREGWAIPAATDIAFALGVLALLGSRVPLALKIFLMALAIIDDLGAIIIIALFYTNDLSMASLGVAAVAIAVLAVLNLCGARRTGVYILVGVVLWTAVLKSGVHATLAGVIVGFFIPLKEKHGRSPAKRLEHVLHPWVAYLILPLFAFANAGVSLGGVTLDGLTSILPLGIIAGMLIGKPLGISLFCWLALRLKLAHLPEGTTYQQIMVVGILCGIGFTMSIFIASLAFGSVDPELINWAKLGILVGSISSAVIGYSWLRVRLRPSV
Question: For B3, which stoichiometry N [3] is on record?
Answer: 2
